Numbered stars: 1 amine (or outer) side, 2 acyl side, 3 side chain; on linkers, the order of the positions; unused ones are H or OH. Bridge positions count the residues as written; N and C are the ends. Square brackets hold non-standard residues; d marks the D form. Side chains are listed from the residue outwards. Ends that are not written are not given here. * marks the point of attachment. C18 diacid = O=C(O)CCCCCCCCCCCCCCCCC(=O)*; γGlu = O=C(O)[C@H](CCC(=O)[*:2])N[*:1]; Aib = CC(C)(N)C(=O)O
T1: human amylin receptor (calcitonin receptor co-expressed with receptor activity modifying protein, RAMP3) (human, UniProt P30988 25-474; O60896 24-148)
T1 sequence (looked up) 1: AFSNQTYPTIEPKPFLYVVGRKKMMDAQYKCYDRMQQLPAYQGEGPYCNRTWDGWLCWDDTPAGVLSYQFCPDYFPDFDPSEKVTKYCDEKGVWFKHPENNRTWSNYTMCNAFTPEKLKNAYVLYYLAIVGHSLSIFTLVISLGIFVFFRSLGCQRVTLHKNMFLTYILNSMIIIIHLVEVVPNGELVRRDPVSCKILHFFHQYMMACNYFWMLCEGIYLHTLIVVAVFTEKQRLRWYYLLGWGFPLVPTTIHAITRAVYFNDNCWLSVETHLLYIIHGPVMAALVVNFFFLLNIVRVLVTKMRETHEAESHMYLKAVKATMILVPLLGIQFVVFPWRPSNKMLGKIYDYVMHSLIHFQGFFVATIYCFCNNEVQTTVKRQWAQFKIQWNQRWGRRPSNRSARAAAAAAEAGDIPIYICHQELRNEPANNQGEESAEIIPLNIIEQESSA
T1 sequence (looked up) 2: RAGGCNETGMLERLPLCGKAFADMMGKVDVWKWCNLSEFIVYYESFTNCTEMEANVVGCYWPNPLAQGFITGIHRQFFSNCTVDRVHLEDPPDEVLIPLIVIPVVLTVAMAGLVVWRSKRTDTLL

T2: human calcitonin receptor (human, UniProt P30988 25-474)
T2 sequence (looked up): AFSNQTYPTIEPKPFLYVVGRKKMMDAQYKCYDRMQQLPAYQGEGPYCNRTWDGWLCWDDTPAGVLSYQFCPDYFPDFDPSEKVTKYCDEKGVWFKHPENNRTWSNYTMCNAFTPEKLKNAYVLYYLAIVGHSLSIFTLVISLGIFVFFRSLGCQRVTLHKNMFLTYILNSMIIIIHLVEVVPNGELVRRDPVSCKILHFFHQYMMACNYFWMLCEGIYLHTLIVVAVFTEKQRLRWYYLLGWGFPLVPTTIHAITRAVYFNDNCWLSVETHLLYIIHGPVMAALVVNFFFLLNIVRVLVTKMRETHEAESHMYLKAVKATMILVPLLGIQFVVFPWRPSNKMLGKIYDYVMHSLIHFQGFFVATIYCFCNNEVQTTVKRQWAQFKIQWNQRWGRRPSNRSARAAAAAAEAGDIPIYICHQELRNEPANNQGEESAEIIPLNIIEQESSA


What was measured:
[1] = biological target: T1, human amylin receptor (calcitonin …); assay: cell-based or functional assay
[2] = biological target: T2, human calcitonin receptor; assay: cell-based or functional assay

| EC50 (cAMP production) [1] [nM] | Ratio (EC50 hCTR / EC50 hAMYR3) [1] | EC50 (cAMP production) [2] [nM] | Binder |
| --- | --- | --- | --- |
| 0.404 | 7 | 2.76 | K([γGlu-C18 diacid])KCNTATCATQRLANFLVHSS[Aib]NFGPILPPTNV[Aib]SNTY-NH2 (disulfide 3-8; N-terminus assumed; SMILES CC[C@H](C)[C@H](NC(=O)[C@@H]1CCCN1C(=O)CNC(=O)[C@H](Cc1ccccc1)NC(=O)[C@H](CC(N)=O)NC(=O)C(C)(C)NC(=O)[C@H](CO)NC(=O)[C@H](CO)NC(=O)[C@H](Cc1c[nH]cn1)NC(=O)[C@@H](NC(=O)[C@H](CC(C)C)NC(=O)[C@H](Cc1ccccc1)NC(=O)[C@H](CC(N)=O)NC(=O)[C@H](C)NC(=O)[C@H](CC(C)C)NC(=O)[C@H](CCCNC(=N)N)NC(=O)[C@H](CCC(N)=O)NC(=O)[C@@H](NC(=O)[C@H](C)NC(=O)[C@@H]1CSSC[C@H](NC(=O)[C@H](CCCCN)NC(=O)[C@@H](N)CCCCNC(=O)CC[C@H](NC(=O)CCCCCCCCCCCCCCCCC(=O)O)C(=O)O)C(=O)N[C@@H](CC(N)=O)C(=O)N[C@@H]([C@@H](C)O)C(=O)N[C@@H](C)C(=O)N[C@@H]([C@@H](C)O)C(=O)N1)[C@@H](C)O)C(C)C)C(=O)N[C@@H](CC(C)C)C(=O)N1CCC[C@H]1C(=O)N1CCC[C@H]1C(=O)N[C@H](C(=O)N[C@@H](CC(N)=O)C(=O)N[C@H](C(=O)NC(C)(C)C(=O)N[C@@H](CO)C(=O)N[C@@H](CC(N)=O)C(=O)N[C@H](C(=O)N[C@@H](Cc1ccc(O)cc1)C(N)=O)[C@@H](C)O)C(C)C)[C@@H](C)O) [Peptide 81 (SEQ ID NO: 81)] |
| 0.407 | 7 | 2.97 | K([γGlu-C18 diacid])KCNTATCATQRLANFLVHSS[Aib]NFGPILPPT[Aib]VGSNTY-NH2 (disulfide 3-8; N-terminus assumed; SMILES CC[C@H](C)[C@H](NC(=O)[C@@H]1CCCN1C(=O)CNC(=O)[C@H](Cc1ccccc1)NC(=O)[C@H](CC(N)=O)NC(=O)C(C)(C)NC(=O)[C@H](CO)NC(=O)[C@H](CO)NC(=O)[C@H](Cc1c[nH]cn1)NC(=O)[C@@H](NC(=O)[C@H](CC(C)C)NC(=O)[C@H](Cc1ccccc1)NC(=O)[C@H](CC(N)=O)NC(=O)[C@H](C)NC(=O)[C@H](CC(C)C)NC(=O)[C@H](CCCNC(=N)N)NC(=O)[C@H](CCC(N)=O)NC(=O)[C@@H](NC(=O)[C@H](C)NC(=O)[C@@H]1CSSC[C@H](NC(=O)[C@H](CCCCN)NC(=O)[C@@H](N)CCCCNC(=O)CC[C@H](NC(=O)CCCCCCCCCCCCCCCCC(=O)O)C(=O)O)C(=O)N[C@@H](CC(N)=O)C(=O)N[C@@H]([C@@H](C)O)C(=O)N[C@@H](C)C(=O)N[C@@H]([C@@H](C)O)C(=O)N1)[C@@H](C)O)C(C)C)C(=O)N[C@@H](CC(C)C)C(=O)N1CCC[C@H]1C(=O)N1CCC[C@H]1C(=O)N[C@H](C(=O)NC(C)(C)C(=O)N[C@H](C(=O)NCC(=O)N[C@@H](CO)C(=O)N[C@@H](CC(N)=O)C(=O)N[C@H](C(=O)N[C@@H](Cc1ccc(O)cc1)C(N)=O)[C@@H](C)O)C(C)C)[C@@H](C)O) [Peptide 80 (SEQ ID NO: 80)] |
| 0.288 | 11 | 3.15 | K([γGlu-C18 diacid])KCNTATCATQRLANFLVHSS[Aib]NFGP[Aib]LPPTNVGSNTY-NH2 (disulfide 3-8; N-terminus assumed; SMILES CC(C)C[C@H](NC(=O)[C@H](CCCNC(=N)N)NC(=O)[C@H](CCC(N)=O)NC(=O)[C@@H](NC(=O)[C@H](C)NC(=O)[C@@H]1CSSC[C@H](NC(=O)[C@H](CCCCN)NC(=O)[C@@H](N)CCCCNC(=O)CC[C@H](NC(=O)CCCCCCCCCCCCCCCCC(=O)O)C(=O)O)C(=O)N[C@@H](CC(N)=O)C(=O)N[C@@H]([C@@H](C)O)C(=O)N[C@@H](C)C(=O)N[C@@H]([C@@H](C)O)C(=O)N1)[C@@H](C)O)C(=O)N[C@@H](C)C(=O)N[C@@H](CC(N)=O)C(=O)N[C@@H](Cc1ccccc1)C(=O)N[C@@H](CC(C)C)C(=O)N[C@H](C(=O)N[C@@H](Cc1c[nH]cn1)C(=O)N[C@@H](CO)C(=O)N[C@@H](CO)C(=O)NC(C)(C)C(=O)N[C@@H](CC(N)=O)C(=O)N[C@@H](Cc1ccccc1)C(=O)NCC(=O)N1CCC[C@H]1C(=O)NC(C)(C)C(=O)N[C@@H](CC(C)C)C(=O)N1CCC[C@H]1C(=O)N1CCC[C@H]1C(=O)N[C@H](C(=O)N[C@@H](CC(N)=O)C(=O)N[C@H](C(=O)NCC(=O)N[C@@H](CO)C(=O)N[C@@H](CC(N)=O)C(=O)N[C@H](C(=O)N[C@@H](Cc1ccc(O)cc1)C(N)=O)[C@@H](C)O)C(C)C)[C@@H](C)O)C(C)C) [Peptide 78 (SEQ ID NO: 78)] |
| 0.231 | 11 | 2.52 | K([γGlu-γGlu-C18 diacid])CNTATCATQRLANFLRHSS[Aib]NFGPILPPTRVGSNTY-NH2 (disulfide 2-7; N-terminus assumed; SMILES CC[C@H](C)[C@H](NC(=O)[C@@H]1CCCN1C(=O)CNC(=O)[C@H](Cc1ccccc1)NC(=O)[C@H](CC(N)=O)NC(=O)C(C)(C)NC(=O)[C@H](CO)NC(=O)[C@H](CO)NC(=O)[C@H](Cc1c[nH]cn1)NC(=O)[C@H](CCCNC(=N)N)NC(=O)[C@H](CC(C)C)NC(=O)[C@H](Cc1ccccc1)NC(=O)[C@H](CC(N)=O)NC(=O)[C@H](C)NC(=O)[C@H](CC(C)C)NC(=O)[C@H](CCCNC(=N)N)NC(=O)[C@H](CCC(N)=O)NC(=O)[C@@H](NC(=O)[C@H](C)NC(=O)[C@@H]1CSSC[C@H](NC(=O)[C@@H](N)CCCCNC(=O)CC[C@H](NC(=O)CC[C@H](NC(=O)CCCCCCCCCCCCCCCCC(=O)O)C(=O)O)C(=O)O)C(=O)N[C@@H](CC(N)=O)C(=O)N[C@@H]([C@@H](C)O)C(=O)N[C@@H](C)C(=O)N[C@@H]([C@@H](C)O)C(=O)N1)[C@@H](C)O)C(=O)N[C@@H](CC(C)C)C(=O)N1CCC[C@H]1C(=O)N1CCC[C@H]1C(=O)N[C@H](C(=O)N[C@@H](CCCNC(=N)N)C(=O)N[C@H](C(=O)NCC(=O)N[C@@H](CO)C(=O)N[C@@H](CC(N)=O)C(=O)N[C@H](C(=O)N[C@@H](Cc1ccc(O)cc1)C(N)=O)[C@@H](C)O)C(C)C)[C@@H](C)O) [Peptide 77 (SEQ ID NO: 77)] |
| 0.514 | 8 | 4.28 | K([γGlu-C18 diacid])KCNTATCATQRLANFLVHSS[Aib]NFGPILPPTNVGS[Aib]TY-NH2 (disulfide 3-8; N-terminus assumed; SMILES CC[C@H](C)[C@H](NC(=O)[C@@H]1CCCN1C(=O)CNC(=O)[C@H](Cc1ccccc1)NC(=O)[C@H](CC(N)=O)NC(=O)C(C)(C)NC(=O)[C@H](CO)NC(=O)[C@H](CO)NC(=O)[C@H](Cc1c[nH]cn1)NC(=O)[C@@H](NC(=O)[C@H](CC(C)C)NC(=O)[C@H](Cc1ccccc1)NC(=O)[C@H](CC(N)=O)NC(=O)[C@H](C)NC(=O)[C@H](CC(C)C)NC(=O)[C@H](CCCNC(=N)N)NC(=O)[C@H](CCC(N)=O)NC(=O)[C@@H](NC(=O)[C@H](C)NC(=O)[C@@H]1CSSC[C@H](NC(=O)[C@H](CCCCN)NC(=O)[C@@H](N)CCCCNC(=O)CC[C@H](NC(=O)CCCCCCCCCCCCCCCCC(=O)O)C(=O)O)C(=O)N[C@@H](CC(N)=O)C(=O)N[C@@H]([C@@H](C)O)C(=O)N[C@@H](C)C(=O)N[C@@H]([C@@H](C)O)C(=O)N1)[C@@H](C)O)C(C)C)C(=O)N[C@@H](CC(C)C)C(=O)N1CCC[C@H]1C(=O)N1CCC[C@H]1C(=O)N[C@H](C(=O)N[C@@H](CC(N)=O)C(=O)N[C@H](C(=O)NCC(=O)N[C@@H](CO)C(=O)NC(C)(C)C(=O)N[C@H](C(=O)N[C@@H](Cc1ccc(O)cc1)C(N)=O)[C@@H](C)O)C(C)C)[C@@H](C)O) [Peptide 82 (SEQ ID NO: 82)] |
| 0.659 | 7 | 4.8 | K([γGlu-C18 diacid])KCNTATCATQRLANFLVHSS[Aib]NFGPI[Aib]PPTNVGSNTY-NH2 (disulfide 3-8; N-terminus assumed; SMILES CC[C@H](C)[C@H](NC(=O)[C@@H]1CCCN1C(=O)CNC(=O)[C@H](Cc1ccccc1)NC(=O)[C@H](CC(N)=O)NC(=O)C(C)(C)NC(=O)[C@H](CO)NC(=O)[C@H](CO)NC(=O)[C@H](Cc1c[nH]cn1)NC(=O)[C@@H](NC(=O)[C@H](CC(C)C)NC(=O)[C@H](Cc1ccccc1)NC(=O)[C@H](CC(N)=O)NC(=O)[C@H](C)NC(=O)[C@H](CC(C)C)NC(=O)[C@H](CCCNC(=N)N)NC(=O)[C@H](CCC(N)=O)NC(=O)[C@@H](NC(=O)[C@H](C)NC(=O)[C@@H]1CSSC[C@H](NC(=O)[C@H](CCCCN)NC(=O)[C@@H](N)CCCCNC(=O)CC[C@H](NC(=O)CCCCCCCCCCCCCCCCC(=O)O)C(=O)O)C(=O)N[C@@H](CC(N)=O)C(=O)N[C@@H]([C@@H](C)O)C(=O)N[C@@H](C)C(=O)N[C@@H]([C@@H](C)O)C(=O)N1)[C@@H](C)O)C(C)C)C(=O)NC(C)(C)C(=O)N1CCC[C@H]1C(=O)N1CCC[C@H]1C(=O)N[C@H](C(=O)N[C@@H](CC(N)=O)C(=O)N[C@H](C(=O)NCC(=O)N[C@@H](CO)C(=O)N[C@@H](CC(N)=O)C(=O)N[C@H](C(=O)N[C@@H](Cc1ccc(O)cc1)C(N)=O)[C@@H](C)O)C(C)C)[C@@H](C)O) [Peptide 79 (SEQ ID NO: 79)] |
